Experimental data as given in article doi:10.1101/187336.

Target: fHbp^V1.1:PorA^267/P1.16 (Neisseria meningitidis (MC58 genomic DNA) | Neisseria meningitidis) (UniProt Q9JXV4)
Test: SPR

For “human complement FH domains 6 and 7 (from UniProt P08603 321-443) (domain or fragment)”, the fold reduction of CFH binding was 8 fold.
